Data reported in publication doi:10.1101/841569 (bioRxiv, 2019).

Biological target: the molecule itself
Assay: crystal structure

B1: Mycobacterium tuberculosis MenD (2-succinyl-5-enolpyruvyl-6-hydroxy-3-cyclohexadiene-1-carboxylate synthase, SEPHCHC synthase) (enzyme)
chain: MNPSTTQARVVVDELIRGGVRDVVLCPGSRNAPLAFALQDADRSGRIRLHVRIDERTAGYLAIGLAIGAGAPVCVAMTSGTAVANLGPAVVEANYARVPLIVLSANRPYELLGTGANQTMEQLGYFGTQVRASISLGLAEDAPERTSALNATWRSATCRVLAAATGARTANAGPVHFDIPLREPLVPDPEPLGAVTPPGRPAGKPWTYTPPVTFDQPLDIDLSVDTVVISGHGAGVHPNLAALPTVAEPTAPRSGDNPLHPLALPLLRPQQVIMLGRPTLHRPVSVLLADAEVPVFALTTGPRWPDVSGNSQATGTRAVTTGAPRPAWLDRCAAMNRHAIAAVREQLAAHPLTTGLHVAAAVSHALRPGDQLVLGASNPVRDVALAGLDTRGIRVRSNRGVAGIDGTVSTAIGAALAYEGAHERTGSPDSPPRTIALIGDLTFVHDSSGLLIGPTEPIPRSLTIVVSNDNGGGIFELLEQGDPRFSDVSSRIFGTPHDVDVGALCRAYHVESRQIEVDELGPTLDQPGAGMRVLEVKADRSSLRQLHAAIKAAL
For B1, the “stoichiometry N” value was 4.
